Laboratory results reported in patent US12077609B2, “Variable lymphocyte receptors that target the brain extracellular matrix and methods of use” (Wisconsin Alumni Research Foundation, priority 2018, dated 2024).

Tests used:
bEnd.3 ECM [1] = experiment: Biopanning of individual VLR-displaying yeast clones onto bEnd.3 and 3T3 ECM, bright-field microscopy; format: binding, mouse; details: yeast-displayed VLR, qualitative
Experimental: FIGS. 1A-1D. Identification of VLRs that bind brain ECM. (A) A yeast surface display VLR library underwent two rounds of biopanning to enrich for clones that bind bEnd.3 ECM. Next, individual clones were grown, induced and screened for comparative binding to bEnd.3 and 3T3 ECM. VLRs were released from the yeast surface using reducing agent and VLR binding to ECM was measured by probing the anti-c-myc epitope tag in an ELISA format. (B) Fold-changes in ECM binding. The ratio of bEnd.3 ECM/3T3 ECM ELISA signals is shown for 285 VLR clones. Lead clones P3A8 and P1C10 are noted. (C) Preferential binding to bEnd.3 ECM was evaluated for selected clones by biopanning individual clones onto bEnd.3 and 3T3 ECM. Yeast binding was qualitatively analyzed by bright field microscopy. Scale bars=100 μm. (D) VLRs were reduced off the yeast surface and used in labeling murine brain sections and detected via an anti-c-myc epitope tag antibody (green). Microvessels (magenta) were labeled with […] lectin, and cell nuclei (blue) were visualized with Hoechst 33342 stain. Scale bars=20 μm.
Brain ECM-binding VLRs were identified by mining a yeast surface display library of VLRs. […] After removal, we evaluated the comparative binding of VLRs to bEnd.3 and 3T3 ECM via ELISA screening (FIG. 1A). […]

U87 cells = experiment: In vitro U87 cytotoxicity assay on bEnd.3 ECM (CellTiter-Glo); format: cell-based, human; details: VLR-conjugated doxorubicin-loaded liposomes bound to bEnd.3 ECM, 2 h incubation, unbound washed, 72 hours culture; read-out: EC50, U87 cell viability as a function of doxorubicin concentration
Text: EC50 calculations were made using GraphPad software suite. […] Data are presented as mean pixel intensity±SD.

bEnd.3 ECM [2] = experiment: Affinity measurement of purified VLR on bEnd.3 ECM (ELISA, one-site equilibrium binding model); parameters: species or system mouse; details: three replicates, monomeric equilibrium binding model; read-out: Monomeric dissociation constant (Kd) for binding to bEnd.3 ECM
Experimental: To characterize VLR affinity for bEnd.3 ECM, dilutions of purified VLR were incubated with ECM. P1C10 VLR was diluted using a sixfold dilution scheme from 10 μM to 0.21 nM and then incubated with bEnd.3 ECM. Wells were washed five times with PBS+0.05% Tween 20 and then inubcated with anti-myc 9E10, 1:750, (BioLegend) and goat anti-mouse IgG modified with HRP. Wells were washed seven times with PBS+0.05% Tween 20 and then incubated with TMB substrate. Reaction was stopped after 15 min by acidification with 1 M HCl. Absorbance at 450 nm was quantified, and data were fit to a one-site equilibrium binding model to determine Kd as previously described (43). The amino acid sequence for VLR P1C10 is […]

bEnd.3 ECM [3] = experiment: ELISA-based screen of comparative VLR binding to bEnd.3 and 3T3 ECM; parameters: species or system mouse; details: VLR reduced off yeast surface; anti-c-myc detection
Text: Brain ECM-binding VLRs were identified by mining a yeast surface display library of VLRs. The library was generated from the VLR repertoire of lamprey immunized with mechanically isolated murine brain microvessel plasma membrane preparations that contained associated brain ECM (20). The library was first enriched for ECM binders via two rounds of biopanning on decellularized ECM generated by cultured mouse brain endothelial cells (bEnd.3 cell line). Next, we sought to identify ECM-binding clones that preferentially bound bEnd.3 ECM compared to control mouse fibroblast ECM (3T3 cell line). For this analysis, we picked individual yeast clones into 96-well plates and then expanded and induced them for VLR display. To enable moderate throughput analysis of the clones and avoid cumbersome subcloning of many VLR clones, we removed the VLRs directly from yeast surface via reduction. After removal, we evaluated the comparative binding of VLRs to bEnd.3 and 3T3 ECM via ELISA screening (FIG. 1A). […]
The VLR YSD library underwent two rounds of biopanning against bEnd.3 ECM to enrich for brain ECM-binding clones as previously described (20, 42). […] VLR binding was detected by incubation with one-step 3,3′,5,5′-tetramethylbenzidine (TMB) substrate for 15 to 30 min to develop signal. The reaction was stopped via acidification with 1 M HCl and quantified using absorbance signal at 450 nm. […]

B1: P1C10: Lamprey variable lymphocyte receptor clone binding brain ECM, SEQ ID NO:1 (protein)
chain: ACPSQCSCDQTTVKCHSRRLTSVPAGIPTTTKILRLYSNQITKLEPGVFDHLVNLEKLYISWNQLSALPVGVFDKLTKLTHLSLGYNQLKSVPRGAFDNLKSLTHIWLLNNPWDCECSDILYLKNWIVQHASIVNLQGHGGVDNVKCSGTNTPVRAVTEASTSPSKCP
modifications: Synthetic- VLR clone P1C10
Yeast clone binding to bEnd.3 ECM compared to 3T3 ECM (bEnd.3 ECM [1]): bound selectively to bEnd.3 ECM compared to 3T3 ECM | EC50 (U87 cells): 0.199 ± 0.0017 µM | Kd (bEnd.3 ECM [2]): 0.0484 ± 0.00605 µM | ELISA fold change (ratio of bEnd.3 ECM/3T3 ECM ELISA signals) (bEnd.3 ECM [3]): 4.2 fold
